What was measured:
MBP-scNS3 [1] = target: T1, MBP-scNS3 (Hepatitis C virus genotype 1b, UniProt P26663); assay: ONPG hydrolysis (β-galactosidase) assay in genetic screening bacteria as indicator of NS3 activity; format: cell-based, Hepatitis C virus (HCV) genotype Ib; details: E. coli TG-I carrying pMGT14 and pMALc-NN-scFv; taken from FIG. 3A
T1 construct: made in house
Protocol: (§1) NS3 catalysis inhibition assays. Blue colonies of E. coli TG-I cells carrying pMGT14 and pMALc-NN-scFv that were isolated by the genetic screening were grown in LB medium supplemented with 100 μg/ml ampicillin, 50 μg/ml kanamycin and induced with 0.2% (w/v) arabinose and 0.5 mM IPTG at O.D600nm=0.6 for 4 hr at 30° C. To measure the β-galactosidase activity an ONPG hydrolysis assay (Bach et al., 2001) was carried out. An in vitro fluorometric assay for the measurement of NS3 protease catalysis inhibition by the purified scFvs was carried out essentially as described (Berdichevsky et al., 2003) with the following modifications: the EFGP-NS5A/B-CBD substrate was immobilized onto cellulose prior to its exposure to enzyme and inhibitor. The reactions were carried out in 96 well plates in a volume of 100 μl containing 5 μM immobilized substrate, 100 nM MBP-5cNS3 and 2.4 or 1.2 μM of tested MBP-scFv.

MBP-scNS3 [2] = target: T1, MBP-scNS3; assay: In vitro fluorometric assay of NS3 protease catalysis inhibition; format: biochemical, Hepatitis C virus (HCV) genotype Ib; details: 100% minus % catalysis of FIG. 3B; 100 nM MBP-scNS3, 5 μM immobilized substrate, 2.4 or 1.2 μM MBP-scFv
Protocol: as §1

scNS3 = target: T2, scNS3 (Hepatitis C virus genotype 1b, UniProt P26663); assay: Competition ELISA with myc-tagged tracer scFvs 171 and 35 on scNS3-coated plates; format: binding, Hepatitis C virus (HCV) genotype Ib; details: tracers scFv 171 and 35, myc tag
T2 construct: a single-chain fusion linking the NS4A cofactor peptide to the N-terminus of the NS3 protease; inferred from the IMAC purification; made in house; host or cells: E. coli BL-21 (DE3) carrying pYB-43
Protocol: For competition ELISA the inventors replaced the C-terminal FLAG epitope of the scFvs that were used as tracers with a myc tag. Competing scFvs were added to scNS3-coated plates at varying concentrations and incubated at room temperature for 1 hr before adding the tracer scFvs. Binding of the tracers was monitored using a HRP-conjugated anti myc antibody (Sigma, Israel).

HCV RNA replicons = assay: Inhibition of HCV RNA replicon amplification, SEAP secretion from replicon-bearing Huh7 cells transfected with intrabodies; format: cell-based, HCV genotype Ib strain N; details: transiently transfected intrabodies
Protocol: Cells and transfections. HCV genotype Ib strain N subgenomic replicon cell lines were obtained from Stanley Lemon and are described in (Bourne et al., 2005). En5-3 cells are a clonal cell line derived from Huh7 cells by stable transformation with the plasmid pLTR-SEAP. These cells were cultured in DMEM supplemented with 10% fetal calf serum, 2 μg/ml blasticidin (Invitrogen), penicillin, and streptomycin. Following transfection with Ntat2ANeo replicon RNAs, cells supporting replicon amplification were selected and maintained in the above media containing in addition 400 μg/ml G418 (geneticin). Cell lines were passaged once or twice per week. […] The culture medium was replaced every 24 h post transfection and the secreted alkaline phosphatase (SEAP) activity was measured in these fluids as described below, reflecting the daily production of SEAP by the cells.
Alkaline phosphatase assay. […] The luminescent signal was read using a TD-20/20 Luminometer (Turner Designs, Inc.).
For intracellular expression of the anti-NS3 protease single-chain antibodies in the cytoplasm of mammalian cells, the scFvs coding genes were subcloned as Ncol-Notl fragments, form plasmid pMALc-NN-scFv into the pCMV/myc/cyto-MBP vector (Shaki-Loewenstein et al, 2005). […] SEAP activity secreted from the cells was measured over successive 24-h intervals. […]

NS3 = target: T3, NS3 (Hepatitis C virus genotype 1b, UniProt P26663); assay: Competitive in vitro fluorometric assay with epitope mimetic peptide; format: biochemical, Hepatitis C virus (HCV); details: scFv 200 μg/ml
T3 construct: made in house
From the text: In order to confirm the prediction of scFv 35 and 171 shared epitope on NS3, the epitope was reconstituted on basis of the prediction. To that end, a short peptide segment of NS3 that was predicted to comprise the antibodies shared epitope was used to generate an epitope mimetic. […] As negative controls, a peptide 21 amino acids in length denoted peptide 6 (N′-[…]-C, SEQ ID NO: 111) and a peptide eight amino acids in length denoted peptide x (N′-[…]-C, SEQ ID NO: 112) were used. To test whether those peptides have any effect on NS3 catalytic activity a control in vitro assay was performed, in which the peptides and the NS3 enzyme were added alone without the inhibitor antibodies.

| Molecule | β-gal: β-galactosidase units (MBP-scNS3 [1]) | % inhibition (MBP-scNS3 [2]) [%] | competition with scFvs 171 and 35 for specific binding to scNS3 (scNS3) | inhibition of SEAP secretion (in words) (HCV RNA replicons) | NS3 catalysis with scFv, without peptide (NS3; no peptide) [%] | NS3 catalysis with scFv in the presence of the epitope mimetic peptide (NS3; peptide mimetic 50 μM) [%] | increase of NS3 catalytic activity on adding the peptide mimetic (NS3; peptide mimetic 50 μM) |
| --- | --- | --- | --- | --- | --- | --- | --- |
| scFv 10: NS3-inhibiting single-chain antibody, SEQ ID NO:11; MBP fusion SEQ ID NO:25 (protein, scFv inhibitor) scFv: QVQLQQSGAELMKPGASVKISCKATGYTFSNYWIEWVKQRPGHGLEWIGGILPGSGSTNYNEKFKGKATFTADTSSNTAYLQLSSLTSEDTAVYYCNADGPPGFDYWGQGTTLTVSSGGGGSGGGGSGGGGSDVLMTQTPLTLSVTIGQPASISCKSSQSLLDSDGKTYLNWLLQRPGQSPKRLIYLVSKLDSGVPDRFTGSGSGTDFTLKISRVEAEDLGVYYCFQGSHVPFTFGSGTKLEIKR | 48 β-galactosidase units | 62 | could compete |  |  |  |  |
| scFv 148: NS3-inhibiting single-chain antibody, SEQ ID NO:7; MBP fusion SEQ ID NO:21 (protein, scFv inhibitor) scFv: EIQLQQSGAELVKPGASVKLSCTASGFNIKDTFVHWVKQRPEQGLEWIGRIDPANGNTKYDPKFQGKATITAATSSNTAYLQLSSLTSEDTAVYYCATGLDYYAMDYWGQGTSVTVSSGGGGSGGGGSGGGGSDVVMTQTPLSPPVSLGDQASISCRSSQSLVHSNGNTYLHWYLQKPGQSPKLLIYKVSNRFSGVPDRFSGSGSGTDFTLKITRVEAEDLGLYFCSQSTHVPWTFGGGTKLEIKR | 72 β-galactosidase units | 58 |  |  |  |  |  |
| scFv 1: NS3-inhibiting single-chain antibody, SEQ ID NO:1; MBP fusion SEQ ID NO:15 (protein, scFv inhibitor) scFv: EVQLQQSGPELVKPGASVKMSCKASGYTFTDYYIKWVKQSHGKSLEWIGVINPGSGGTNYNEKFKGKATLTADKSSSTAYMQLSSLTSENSAVYFCARRAGTGYYFDYWGQGTTVTVSSGGGGSGGGGSGGGGSDVLMTQTPLSLPVSLGDQASISCRSSQSIVHSNGNTYLEWYLQKPGQSPKLLIYKVSNRFSGVPDRFSGSGSGTDFTLKISRVEAEDLGVYYCFQGSHVPLTFGAGTKLEIKR | 44 β-galactosidase units | 46 | could compete |  |  |  |  |
| scFv 162: NS3-inhibiting single-chain antibody, SEQ ID NO:5; MBP fusion SEQ ID NO:19 (protein, scFv inhibitor) scFv: EVQLQQSGAELVRSGASVKLSCTASGFNIKDYYMHWVKQRPEQGLEWIGWIDPANGNTKYDPKFQGKATITADTSSNTAYLQLSSLTSEDTAVYYCARWDWYFDVWGAGTTVTVSSGGGGSGGGGSGGGGSSVLMTQTPLSLPVSLGDQASISCRSSQSIVHSNGNTYLEWYLQKPGQSPKLLIYKVSNRFSGVPDRFSGSGSGTDFTLKISRVEAEDLGVYYCFQGSHVPWTFGGGTKLELKR | 84 β-galactosidase units | 62 | apparently did not |  |  |  |  |
| scFv 171: NS3-inhibiting single-chain antibody, SEQ ID NO:6; MBP fusion SEQ ID NO:20 (protein, scFv inhibitor) scFv: EVQLQQSGAELVRSGASVKLSCTASGFNIKDYYMHWVKQRPEQGLEWIGWIDPENGDTEYAPKFQGKATMTADTSSNTAYLQLSSLTSEDTAVYYCNAWGGSSDYYAMDYWGQGTSVTVSSGGGGSGGGGSGGGGSDVVMTQTPLSLPVSLGDQASISCRSSQSLVHSNGNTYLHWYLQKPGQSPKLLIYKVSNRFSGVPDRFSGSGSGTDFTLKISRVEAEDLGVYYCFQGSHVPWTFGGGTKLEIKR | 67 β-galactosidase units | 88 | could compete | most potent inhibitors | 60 | 93 | more than 30% |
| scFv 11: NS3-inhibiting single-chain antibody, SEQ ID NO:10; MBP fusion SEQ ID NO:24 (protein, scFv inhibitor) scFv: EVQLQQSGAELVKPGASVKLSCTASGFNIKDYYMHWVKQRPGQGLEYIGRIYPGNGQTDYNGKFKGKATLTADKSSSTAYMQLSSLTSVDSAVYFCARGLFAYWGQGTLVTVSSGGGGSGGGGSGGGGSDVVMTQTPLSLPVSFGDQVSISCRSSQSLANSYGNTYLSWCLHKPGQSPQLLIYGISNRFSGVPDRFSGSGSGTDFTLKISTIKPEDLGMYYCLQGTHQPLTFGAGTKLEIKR | 60 β-galactosidase units | 52 | could compete |  |  |  |  |

— patent US20080089862A1, “PROTEASE INHIBITORS AND METHOD OF SCREENING THEREOF” (priority 2005, published 2008)
